Laboratory results reported in the supplement of paper PMC11865577.

How the values were obtained:
Experiment in all cases: pull-down binding Z-score (relative to library population); higher = stronger binding
[1] = test system: G-clamp-N3 (biotin conjugate); conditions: RNA library: Library-1 (pre-miRNA loops + repeats)
Outline: (§1)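 An RNA library (1 μg) carrying a Cy5 or Cy3 end label was heat-folded in phosphate/NaCl/KCl buffer, then incubated for 60 min at 25 °C with streptavidin beads loaded with 100 pmol of biotin-conjugated small molecule. The beads were washed three times, and bound RNA was released in hot SDS and hybridised to a DNA barcode microarray for 20 h at 55.5 °C. Each binding score was derived by subtracting the signal from beads without compound, averaging the barcoded replicate probes after removing the highest and lowest, and expressing the result as a Z-score relative to the library mean and standard deviation.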

[2] = test system: TO-3-N3 (biotin conjugate); conditions: RNA library: Library-2
Outline: as §1

[3] = test system: TO-3-N3-2 (biotin conjugate); conditions: RNA library: Library-2
Outline: as §1

TO-N3 (biotin conjugate) = conditions: RNA library: Library-2
Outline: as §1

[4] = test system: TO-N3-2 (biotin conjugate); conditions: RNA library: Library-2
Outline: as §1

Question: How did the “pull-down binding Z-score” value [1] turn out when GGCAGUGGUUCUAAAAGCUGUC [hsa-mir-3618] was run?
Answer: Its value is 0.498.

Question: What about the “pull-down binding Z-score” value [2] of the same sequence?
Answer: The value was 0.861.

Question: What about the “pull-down binding Z-score” value [3] of the same sequence?
Answer: Its value is -0.198.

Question: And the “pull-down binding Z-score” value (TO-N3 (biotin conjugate))?
Answer: Its value is 0.603.

Question: And the “pull-down binding Z-score” value [4]?
Answer: Its value is 0.117.

Question: Which “pull-down binding Z-score” value [1] does the source give for “AAGUGGAGCAGGAAUGCGCUUUUCUCCACUG [hsa-mir-5187]” here?
Answer: The value was 1.93.

Question: What about the “pull-down binding Z-score” value [2] of the same sequence?
Answer: The value was 0.299.

Question: What about the “pull-down binding Z-score” value [3] of the same sequence?
Answer: The value was 0.27.

Question: And the “pull-down binding Z-score” value (TO-N3 (biotin conjugate))?
Answer: The value was 0.567.

Question: And the “pull-down binding Z-score” value [4]?
Answer: Its value is 0.231.

Question: How did the “pull-down binding Z-score” value [1] turn out when “CACGCAUUUGCUUUACUUGCAAUGAUUAUA [hsa-mir-300]” was run?
Answer: The value was -0.374.

Question: And the “pull-down binding Z-score” value [2]?
Answer: The value was 0.485.

Question: And the “pull-down binding Z-score” value [3]?
Answer: The value was 0.215.

Question: What about the “pull-down binding Z-score” value (TO-N3 (biotin conjugate)) of the same sequence?
Answer: The value was 0.583.

Question: And the “pull-down binding Z-score” value [4]?
Answer: Its value is 0.472.

Question: Which “pull-down binding Z-score” value [1] does the source give for GAACACUAUUCCAUUGUGUUC [hsa-mir-588] here?
Answer: The value was 0.0194.

Question: What about the “pull-down binding Z-score” value [2] of the same sequence?
Answer: The value was -0.971.

Question: And the “pull-down binding Z-score” value [3]?
Answer: The value was -0.701.

Question: And the “pull-down binding Z-score” value (TO-N3 (biotin conjugate))?
Answer: Its value is -1.33.

Question: What about the “pull-down binding Z-score” value [4] of the same sequence?
Answer: The value was -1.31.

Question: With UAAAGAGUAUUCAACAUC [hsa-mir-1245b] as the sequence, how does the “pull-down binding Z-score” value [1] read?
Answer: Its value is -0.935.

Question: And the “pull-down binding Z-score” value [2]?
Answer: Its value is -0.609.

Question: What about the “pull-down binding Z-score” value [3] of the same sequence?
Answer: The value was 0.0553.

Question: And the “pull-down binding Z-score” value (TO-N3 (biotin conjugate))?
Answer: The value was -0.49.

Question: And the “pull-down binding Z-score” value [4]?
Answer: Its value is -0.373.

Question: With “GGGUCAGGUCUGCAGCCUUGUAUCUGCUGAUCC [hsa-mir-6881]” as the sequence, how does the “pull-down binding Z-score” value [1] read?
Answer: Its value is -0.0593.

Question: What about the “pull-down binding Z-score” value [2] of the same sequence?
Answer: Its value is -0.183.

Question: What about the “pull-down binding Z-score” value [3] of the same sequence?
Answer: The value was -0.227.

Question: What about the “pull-down binding Z-score” value (TO-N3 (biotin conjugate)) of the same sequence?
Answer: The value was -0.234.

Question: What about the “pull-down binding Z-score” value [4] of the same sequence?
Answer: The value was -0.107.

Question: Which “pull-down binding Z-score” value [1] does the source give for “UCAGCUGUGAGCUCAAGGUGGCUGG [hsa-mir-30c-1]” here?
Answer: Its value is 1.32.

Question: What about the “pull-down binding Z-score” value [2] of the same sequence?
Answer: The value was 0.424.

Question: And the “pull-down binding Z-score” value [3]?
Answer: Its value is 0.093.

Question: What about the “pull-down binding Z-score” value (TO-N3 (biotin conjugate)) of the same sequence?
Answer: Its value is 0.804.

Question: What about the “pull-down binding Z-score” value [4] of the same sequence?
Answer: The value was 0.98.

Question: How did the “pull-down binding Z-score” value [1] turn out when “AGAGCACCUCCUAGAGAAUGUUGAACUAAAGGUGCCC [hsa-mir-4723]” was run?
Answer: The value was -0.814.

Question: What about the “pull-down binding Z-score” value [2] of the same sequence?
Answer: Its value is 0.573.

Question: What about the “pull-down binding Z-score” value [3] of the same sequence?
Answer: The value was 0.528.

Question: And the “pull-down binding Z-score” value (TO-N3 (biotin conjugate))?
Answer: Its value is 0.813.

Question: And the “pull-down binding Z-score” value [4]?
Answer: The value was 1.16.

Question: How did the “pull-down binding Z-score” value [1] turn out when CCAGGCCACAUAAUGAGCCAAA [hsa-mir-6771] was run?
Answer: Its value is -1.04.

Question: What about the “pull-down binding Z-score” value [2] of the same sequence?
Answer: The value was 0.665.

Question: And the “pull-down binding Z-score” value [3]?
Answer: Its value is 0.198.

Question: What about the “pull-down binding Z-score” value (TO-N3 (biotin conjugate)) of the same sequence?
Answer: Its value is 0.899.

Question: What about the “pull-down binding Z-score” value [4] of the same sequence?
Answer: Its value is 0.607.

Question: With “GCAGCCUUCUGCCUUUGGCUUUCUGAAGCGAGCUGA [hsa-mir-7158]” as the sequence, how does the “pull-down binding Z-score” value [1] read?
Answer: The value was -0.699.

Question: And the “pull-down binding Z-score” value [2]?
Answer: Its value is 0.327.

Question: What about the “pull-down binding Z-score” value [3] of the same sequence?
Answer: The value was 0.292.

Question: What about the “pull-down binding Z-score” value (TO-N3 (biotin conjugate)) of the same sequence?
Answer: The value was 0.769.

Question: And the “pull-down binding Z-score” value [4]?
Answer: Its value is 1.09.

Question: For “GCAGAAAUCACUCCAGGAGCAACUGA [hsa-mir-936]”, which “pull-down binding Z-score” value [1] is on record?
Answer: Its value is -0.3.

Question: And the “pull-down binding Z-score” value [2]?
Answer: The value was -0.365.

Question: What about the “pull-down binding Z-score” value [3] of the same sequence?
Answer: Its value is 0.0585.

Question: And the “pull-down binding Z-score” value (TO-N3 (biotin conjugate))?
Answer: Its value is 0.625.

Question: What about the “pull-down binding Z-score” value [4] of the same sequence?
Answer: Its value is 0.712.

Question: Which “pull-down binding Z-score” value [1] does the source give for CUGAGGACAUGCAGUUUCAG [hsa-mir-7702] here?
Answer: The value was 0.946.

Question: What about the “pull-down binding Z-score” value [2] of the same sequence?
Answer: The value was -0.471.

Question: And the “pull-down binding Z-score” value [3]?
Answer: Its value is -0.579.

Question: And the “pull-down binding Z-score” value (TO-N3 (biotin conjugate))?
Answer: The value was -0.651.

Question: And the “pull-down binding Z-score” value [4]?
Answer: The value was -0.304.

Question: AUGUGUUGUGAUGGCACAGCGU [hsa-mir-592] was tested. Which “pull-down binding Z-score” value [1] did it give?
Answer: The value was -0.64.

Question: And the “pull-down binding Z-score” value [2]?
Answer: Its value is -0.831.

Question: And the “pull-down binding Z-score” value [3]?
Answer: Its value is -0.582.

Question: What about the “pull-down binding Z-score” value (TO-N3 (biotin conjugate)) of the same sequence?
Answer: Its value is -0.817.

Question: And the “pull-down binding Z-score” value [4]?
Answer: Its value is 0.256.

Question: What does the source list for “CAAGUCCGUCUUCCUGAGAGGUUUG [hsa-mir-133b]”?
Answer: pull-down binding Z-score [1]: -0.401; pull-down binding Z-score [2]: -0.412; pull-down binding Z-score [3]: -0.284; pull-down binding Z-score (TO-N3 (biotin conjugate)): -0.0806; pull-down binding Z-score [4]: 0.836

Question: How did the “pull-down binding Z-score” value [1] turn out when GGAUUUGCUUCCUGUCACAAAUCA [hsa-mir-23a] was run?
Answer: Its value is -1.51.

Question: What about the “pull-down binding Z-score” value [2] of the same sequence?
Answer: The value was 0.391.

Question: And the “pull-down binding Z-score” value [3]?
Answer: Its value is -0.241.

Question: And the “pull-down binding Z-score” value (TO-N3 (biotin conjugate))?
Answer: The value was 0.271.

Question: And the “pull-down binding Z-score” value [4]?
Answer: The value was -0.188.

Question: How did the “pull-down binding Z-score” value [1] turn out when “GCAAGGUUGUUGGUGAUAUGGCUUCCUCUC [hsa-mir-4685]” was run?
Answer: Its value is 0.872.

Question: And the “pull-down binding Z-score” value [2]?
Answer: Its value is -0.179.

Question: What about the “pull-down binding Z-score” value [3] of the same sequence?
Answer: Its value is 0.0915.

Question: What about the “pull-down binding Z-score” value (TO-N3 (biotin conjugate)) of the same sequence?
Answer: Its value is 0.0508.

Question: What about the “pull-down binding Z-score” value [4] of the same sequence?
Answer: The value was 0.538.

Question: How did the “pull-down binding Z-score” value [1] turn out when “GGAUGUGUUGACCCCUGAAGUGGUUCUGAUGACCUUUCC [hsa-mir-6883]” was run?
Answer: Its value is -1.11.

Question: And the “pull-down binding Z-score” value [2]?
Answer: The value was 0.00863.

Question: And the “pull-down binding Z-score” value [3]?
Answer: Its value is -0.03.

Question: What about the “pull-down binding Z-score” value (TO-N3 (biotin conjugate)) of the same sequence?
Answer: Its value is 0.387.

Question: What about the “pull-down binding Z-score” value [4] of the same sequence?
Answer: Its value is 0.938.

Question: Which results are given for “UGCUUUGUUAGAAACAAAAAGCA [hsa-mir-4679-1]”?
Answer: pull-down binding Z-score [1]: 0.865; pull-down binding Z-score [2]: 0.632; pull-down binding Z-score [3]: 0.248; pull-down binding Z-score (TO-N3 (biotin conjugate)): 0.447; pull-down binding Z-score [4]: -0.462
